What was measured:
[1] = target: T1, YU2 gp120 (HIV-1 (strain YU2), UniProt P35961); assay: ELISA
[2] = target: T1, YU2 gp120; assay: SPR

B1: VRC03 (antibody, V domains shown)
VH: QVQLVQSGAVIKTPGSSVKISCRASGYNFRDYSIHWVRLIPDKGFEWIGWIKPLWGAVSYARQLQGRVSMTRQLSQDPDDPDWGVAYMEFSGLTPADTAEYFCVRRGSCDYCGDFPWQYWGQGTVVVVSS
VL: EIVLTQSPGILSLSPGETATLFCKASQGGNAMTWYQKRRGQVPRLLIYDTSRRASGVPDRFVGSGSGTDFFLTINKLDREDFAVYYCQQFEFFGLGSELEVH
binding result [1]: binds
Kd [2]: 73.1 nM

Source: paper PMC2965066 (Science (New York, N.Y.), 2010)
